Source: article PMC6097439 (BMC Biology, 2018)
Changes are numbered by the printed parent chain.

B1: Ang2-BDWT, soluble protein (domain or fragment, UniProt O15123 281-496, looked up)
chain: FRDCAEVFKSGHTTNGIYTLTFPNSTEEIKAYCDMEAGGGGWTIIQRREDGSVDFQRTWKEYKVGFGNPSGEYWLGNEFVSQLTNQQRYVLKIHLKDWEGNEAYSLYEHFYLSSEELNYRIHLKGLTGTAGKISSISQPGNDFSTKDGDNDKCICKCSQMLTGGWWFDACGPSNLNGMYYPQRQNTNKFNGIKWYYWKGSGYSLKATTMMIRPADF
notes: The limits 281-496 are stated for the Ang2-BDWT gene; also called wild-type Ang2 BD; mono-specific Ang2-BDWT; source: Pichia (Multi-Copy Pichia Expression Kit), purified from yeast culture supernatant (HisTrap, Superdex 200)
B2: Ang2-BDBC6, soluble protein (designed binder)
chain: FRDCAEVFKSGHTTNGIYTLREGRGDNVDIKAYCDMEAGGGGWTIIQRREDGSVDFQRTWKEYKVGFGNPSGEYWLGNEFVSQLTNQQRYVLKIHLKDWEGNEAYSLYEHFYLSSEELNYRIHLKGLTGTAGKISSISQPGNDFSTKDGDNDKCICKCSQMLTGGWWFDACGPSNLNGMYYPQRQNTNKFNGIKWYYWKGSGYSLKATTMMIRPADF
notes: also called Ang2-BD bi-specific variant; source: Pichia (Multi-Copy Pichia Expression Kit), purified from yeast culture supernatant (HisTrap, Superdex 200)
B3: Ang2-BDBC5, soluble protein (designed binder)
chain: B2 chain with R21N, E22T, G23C, N27C, V28L, D29P
notes: as for B2
B4: Ang2-BDBC10, soluble protein (designed binder)
chain: B2 chain with R21Y, E22P, V28P
notes: as for B2

What was measured:
[1] = biological target: Tie2, immobilized for SPR (human, UniProt Q02763 23-1124, Limits of the immobilized Tie2 are not printed. Taken as the mature extracellular domain (the text says extracellular domain of rhTie2 in the dual SPR experiment), ending at Lys745 as in commercial rh); assay: SPR; Tie2 immobilized, Ang2-BD variants as analytes; ProteOn XPR36; steady state fit; as previously described [54]; conditions: both partners purified
Tie2, immobilized for SPR, sequence (Q02763 23-1124): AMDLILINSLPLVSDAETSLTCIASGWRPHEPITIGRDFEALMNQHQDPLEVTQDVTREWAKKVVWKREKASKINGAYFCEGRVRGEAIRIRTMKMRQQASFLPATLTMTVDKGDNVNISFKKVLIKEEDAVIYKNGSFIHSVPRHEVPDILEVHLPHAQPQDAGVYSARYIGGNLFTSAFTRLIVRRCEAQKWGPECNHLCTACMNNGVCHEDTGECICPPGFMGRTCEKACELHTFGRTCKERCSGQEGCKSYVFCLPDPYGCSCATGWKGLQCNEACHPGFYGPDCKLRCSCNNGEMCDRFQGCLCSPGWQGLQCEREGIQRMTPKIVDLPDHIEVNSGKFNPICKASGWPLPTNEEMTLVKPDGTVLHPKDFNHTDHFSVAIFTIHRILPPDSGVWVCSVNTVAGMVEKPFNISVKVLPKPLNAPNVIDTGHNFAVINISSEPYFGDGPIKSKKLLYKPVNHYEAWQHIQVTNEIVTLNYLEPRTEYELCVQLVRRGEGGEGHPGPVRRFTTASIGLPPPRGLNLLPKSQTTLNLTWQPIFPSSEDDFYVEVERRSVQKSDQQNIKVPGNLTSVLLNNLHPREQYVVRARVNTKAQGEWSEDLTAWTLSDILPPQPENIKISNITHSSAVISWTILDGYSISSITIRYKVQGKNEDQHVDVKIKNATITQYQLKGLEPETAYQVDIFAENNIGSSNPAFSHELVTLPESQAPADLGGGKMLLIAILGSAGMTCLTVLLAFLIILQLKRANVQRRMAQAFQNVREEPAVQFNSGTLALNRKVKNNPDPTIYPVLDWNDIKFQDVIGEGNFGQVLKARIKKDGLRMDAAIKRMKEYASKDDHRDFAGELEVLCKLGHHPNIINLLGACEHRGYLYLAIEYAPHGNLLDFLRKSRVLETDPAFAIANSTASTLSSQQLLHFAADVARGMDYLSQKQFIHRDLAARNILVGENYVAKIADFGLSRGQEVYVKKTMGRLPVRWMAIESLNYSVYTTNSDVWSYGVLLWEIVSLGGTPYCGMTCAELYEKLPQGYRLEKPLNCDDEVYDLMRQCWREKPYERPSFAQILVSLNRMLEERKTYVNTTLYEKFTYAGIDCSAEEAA

[2] = biological target: T1, recombinant αvβ3 integrin (human, UniProt P06756 31-992; P05106 27-718); assay: SPR; αvβ3 integrin immobilized by amine coupling (GLC chip), 12.5 to 200 nM Ang2-BD variants as analytes, 25 °C, IBB; 1:1 Langmuir model; conditions: both partners purified
T1 construct: human integrin αv subunit (Phe31-Val992); human integrin β3 subunit (Gly27-Asp718); also called solubilized αvβ3 integrin; αvβ3 integrin extracellular domain; source: bought: R&D Systems

[3] = biological target: αvβ3 integrin expressed on TIME cells (human (endogenous in TIME cells), UniProt P06756 31-1048; P05106 27-788); assay: cell-based or functional assay
αvβ3 integrin expressed on TIME cells, sequence (P06756 31-1048, chain 1 of 2): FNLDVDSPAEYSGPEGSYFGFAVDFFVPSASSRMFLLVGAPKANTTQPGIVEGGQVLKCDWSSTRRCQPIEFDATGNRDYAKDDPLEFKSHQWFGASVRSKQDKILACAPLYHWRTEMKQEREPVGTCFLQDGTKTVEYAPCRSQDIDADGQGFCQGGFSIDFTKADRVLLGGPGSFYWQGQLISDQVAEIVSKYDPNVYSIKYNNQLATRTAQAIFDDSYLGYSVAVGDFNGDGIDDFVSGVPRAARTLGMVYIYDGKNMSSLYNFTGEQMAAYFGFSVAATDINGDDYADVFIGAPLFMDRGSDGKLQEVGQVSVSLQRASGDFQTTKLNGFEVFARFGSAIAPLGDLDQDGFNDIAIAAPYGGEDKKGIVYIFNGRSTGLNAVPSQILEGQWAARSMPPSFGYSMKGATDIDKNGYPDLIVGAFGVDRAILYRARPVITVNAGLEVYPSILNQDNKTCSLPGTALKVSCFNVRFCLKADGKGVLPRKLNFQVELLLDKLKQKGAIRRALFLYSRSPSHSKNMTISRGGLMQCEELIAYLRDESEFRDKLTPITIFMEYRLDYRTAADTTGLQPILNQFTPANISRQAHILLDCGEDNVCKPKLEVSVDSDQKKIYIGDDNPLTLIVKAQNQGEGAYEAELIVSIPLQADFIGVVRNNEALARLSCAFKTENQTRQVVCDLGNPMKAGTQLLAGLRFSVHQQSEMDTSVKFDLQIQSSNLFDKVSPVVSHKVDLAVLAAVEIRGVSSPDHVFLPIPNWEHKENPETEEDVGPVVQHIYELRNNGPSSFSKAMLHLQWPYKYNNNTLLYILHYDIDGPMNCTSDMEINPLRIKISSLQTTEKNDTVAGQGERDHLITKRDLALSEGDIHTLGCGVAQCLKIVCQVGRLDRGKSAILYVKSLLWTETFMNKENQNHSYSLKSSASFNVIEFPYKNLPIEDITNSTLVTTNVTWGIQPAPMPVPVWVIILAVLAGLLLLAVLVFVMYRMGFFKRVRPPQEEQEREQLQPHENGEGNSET
αvβ3 integrin expressed on TIME cells, sequence (P05106 27-788, chain 2 of 2): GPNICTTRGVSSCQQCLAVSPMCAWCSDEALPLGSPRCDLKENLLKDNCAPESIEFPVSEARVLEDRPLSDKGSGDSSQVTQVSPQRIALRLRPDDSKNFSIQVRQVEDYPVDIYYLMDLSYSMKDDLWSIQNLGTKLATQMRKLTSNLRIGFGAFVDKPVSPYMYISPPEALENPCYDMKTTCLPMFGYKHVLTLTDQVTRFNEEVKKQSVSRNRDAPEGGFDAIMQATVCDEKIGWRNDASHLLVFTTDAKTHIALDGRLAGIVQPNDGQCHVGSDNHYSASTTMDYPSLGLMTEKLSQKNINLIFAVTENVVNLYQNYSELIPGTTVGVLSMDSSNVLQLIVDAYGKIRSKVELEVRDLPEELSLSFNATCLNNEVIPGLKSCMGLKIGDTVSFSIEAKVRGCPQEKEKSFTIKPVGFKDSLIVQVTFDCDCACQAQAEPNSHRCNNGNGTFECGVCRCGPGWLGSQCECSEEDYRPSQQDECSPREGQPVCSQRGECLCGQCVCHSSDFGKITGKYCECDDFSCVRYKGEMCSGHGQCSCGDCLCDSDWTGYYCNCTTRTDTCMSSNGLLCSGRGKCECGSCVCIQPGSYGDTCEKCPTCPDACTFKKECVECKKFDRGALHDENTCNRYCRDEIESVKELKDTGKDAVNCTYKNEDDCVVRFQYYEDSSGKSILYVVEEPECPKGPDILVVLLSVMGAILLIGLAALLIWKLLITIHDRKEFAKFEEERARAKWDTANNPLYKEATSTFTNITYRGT

[4] = biological target: Tie2 expressed on TIME cells (human (endogenous in TIME cells), UniProt Q02763 23-1124); assay: cell-based or functional assay
Tie2 expressed on TIME cells, sequence (Q02763 23-1124): as the sequence (Q02763 23-1124) above

[5] = biological target: T2, recombinant α5β1 integrin (human, UniProt P08648 42-995; P05556 21-728); assay: SPR; integrins other than αvβ3 immobilized by amine coupling, 1 μM of the Ang2-BD variants as analyte, 25 °C, IBB; conditions: both partners purified
T2 construct: human integrin α5 subunit, extracellular domain; human integrin β1 subunit, extracellular domain; source: bought: R&D Systems
T2 sequence (P08648 42-995, chain 1 of 2): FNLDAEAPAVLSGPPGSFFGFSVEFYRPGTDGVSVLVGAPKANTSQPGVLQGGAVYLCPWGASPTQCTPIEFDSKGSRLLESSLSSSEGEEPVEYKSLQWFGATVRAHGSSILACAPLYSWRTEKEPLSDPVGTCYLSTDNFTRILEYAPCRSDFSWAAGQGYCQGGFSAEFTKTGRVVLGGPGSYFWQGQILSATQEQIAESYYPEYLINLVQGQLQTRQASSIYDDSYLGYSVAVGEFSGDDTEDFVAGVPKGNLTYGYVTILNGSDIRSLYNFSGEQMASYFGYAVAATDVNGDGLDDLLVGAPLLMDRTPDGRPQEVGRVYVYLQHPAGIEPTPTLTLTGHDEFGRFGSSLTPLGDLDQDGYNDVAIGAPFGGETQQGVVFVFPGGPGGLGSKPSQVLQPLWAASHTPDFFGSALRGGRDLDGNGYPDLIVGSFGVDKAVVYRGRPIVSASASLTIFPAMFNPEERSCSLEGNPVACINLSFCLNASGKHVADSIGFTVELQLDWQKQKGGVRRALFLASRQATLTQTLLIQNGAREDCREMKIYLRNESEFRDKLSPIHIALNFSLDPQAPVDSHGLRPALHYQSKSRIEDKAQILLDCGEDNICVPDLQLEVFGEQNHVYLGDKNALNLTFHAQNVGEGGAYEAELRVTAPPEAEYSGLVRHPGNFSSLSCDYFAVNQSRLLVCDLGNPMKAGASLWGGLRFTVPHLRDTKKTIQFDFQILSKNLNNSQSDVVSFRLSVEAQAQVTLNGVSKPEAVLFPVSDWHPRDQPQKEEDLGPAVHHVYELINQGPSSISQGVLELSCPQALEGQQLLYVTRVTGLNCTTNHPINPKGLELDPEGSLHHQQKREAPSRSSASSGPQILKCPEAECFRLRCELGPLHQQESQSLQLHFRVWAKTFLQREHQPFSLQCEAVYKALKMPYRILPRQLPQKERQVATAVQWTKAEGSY
T2 sequence (P05556 21-728, chain 2 of 2): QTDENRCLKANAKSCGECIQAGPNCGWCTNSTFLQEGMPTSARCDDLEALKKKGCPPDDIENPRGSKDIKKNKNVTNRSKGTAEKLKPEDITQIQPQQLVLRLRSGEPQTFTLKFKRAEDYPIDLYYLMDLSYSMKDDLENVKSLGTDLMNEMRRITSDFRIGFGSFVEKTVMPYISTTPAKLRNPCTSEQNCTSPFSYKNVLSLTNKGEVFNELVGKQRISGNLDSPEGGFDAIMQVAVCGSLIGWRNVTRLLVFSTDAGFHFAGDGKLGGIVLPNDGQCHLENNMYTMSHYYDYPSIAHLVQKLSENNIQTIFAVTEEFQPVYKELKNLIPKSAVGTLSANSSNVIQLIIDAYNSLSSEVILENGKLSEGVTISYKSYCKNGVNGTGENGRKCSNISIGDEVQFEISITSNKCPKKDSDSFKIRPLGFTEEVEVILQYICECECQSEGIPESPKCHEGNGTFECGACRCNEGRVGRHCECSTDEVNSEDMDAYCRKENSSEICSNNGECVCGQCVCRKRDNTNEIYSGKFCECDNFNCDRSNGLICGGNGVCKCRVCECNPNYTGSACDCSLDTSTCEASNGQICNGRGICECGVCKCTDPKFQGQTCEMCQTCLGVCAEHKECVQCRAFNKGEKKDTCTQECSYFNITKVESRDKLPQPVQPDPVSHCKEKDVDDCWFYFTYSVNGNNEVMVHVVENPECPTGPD

[6] = biological target: T3, recombinant αvβ5 integrin (human, UniProt P06756 31-992; P18084 24-719); assay: SPR; αvβ5, αvβ1, αvβ6, αvβ8 integrins immobilized, 62.5 to 1000 nM Ang2-BDBC5 as analyte, 25 °C, IBB; two-state binding model; conditions: both partners purified
T3 construct: human integrin αv subunit, extracellular domain; human integrin β5 subunit, extracellular domain; source: bought: R&D Systems

[7] = biological target: T4, recombinant αvβ6 integrin (human, UniProt P06756 31-992; P18564 22-709); assay: as above; conditions: both partners purified
T4 construct: human integrin αv subunit, extracellular domain; human integrin β6 subunit, extracellular domain; source: bought: R&D Systems

[8] = biological target: T5, recombinant αvβ8 integrin (human, UniProt P06756 31-992; P26012 43-684); assay: as above; conditions: both partners purified
T5 construct: human integrin αv subunit, extracellular domain; human integrin β8 subunit, extracellular domain; source: bought: R&D Systems

[9] = biological target: T6, recombinant αvβ1 integrin (human, UniProt P06756 31-992; P05556 21-728); assay: as above; conditions: both partners purified
T6 construct: human integrin αv subunit, extracellular domain; human integrin β1 subunit, extracellular domain; source: bought: R&D Systems

Binder	Kd [1] [nM]	Kd [2] [nM]	koff [2] [s⁻¹]	kon [2] [M⁻¹ s⁻¹]	decrease in adhesion of TIME cells to vitronectin-coated plates, 1 μM variant, with 500 ng/ml FL-Ang1 (blocks αvβ3 integrin on vitronectin) [3] [%]	decrease in adhesion of TIME cells to vitronectin-coated plates, 1 μM variant, without FL-Ang1 (blocks αvβ3 integrin on vitronectin) [3] [%]	decrease in Tie2 phosphorylation intensity, TIME cells on vitronectin, 500 ng/ml FL-Ang1 with 1 μM variant (blocks FL-Ang1 on Tie2) [4] [%]	binding result [5]	also measured
B1	660	–	–	–	–	–	–	–	–
B2	1260	2.97	0.000236	79400	35	39	64	binds	–
B3	1360	14.9	0.000444	29900	53	30	67	binds	Kd [6]: 65 nM; Koff1 (two-state model, step 1) [6]: 0.00259 s⁻¹; Koff2 (two-state model, step 2) [6]: 0.00035 s⁻¹; Kon1 (two-state model, step 1) [6]: 39800 M⁻¹ s⁻¹; Kon2 (two-state model, step 2) [6]: 0.00544 s⁻¹; Kd [7]: 364 nM; Koff1 (two-state model, step 1) [7]: 0.00835 s⁻¹; Koff2 (two-state model, step 2) [7]: 0.00106 s⁻¹; Kon1 (two-state model, step 1) [7]: 22900 M⁻¹ s⁻¹; Kon2 (two-state model, step 2) [7]: 0.0032 s⁻¹; Kd [8]: 138 nM; Koff1 (two-state model, step 1) [8]: 0.00505 s⁻¹; Koff2 (two-state model, step 2) [8]: 0.00215 s⁻¹; Kon1 (two-state model, step 1) [8]: 36600 M⁻¹ s⁻¹; Kon2 (two-state model, step 2) [8]: 0.0024 s⁻¹; Kd [9]: 550 nM; Koff1 (two-state model, step 1) [9]: 0.00629 s⁻¹; Koff2 (two-state model, step 2) [9]: 0.00197 s⁻¹; Kon1 (two-state model, step 1) [9]: 11400 M⁻¹ s⁻¹; Kon2 (two-state model, step 2) [9]: 0.00304 s⁻¹
B4	950	4.17	0.000429	103000	37	47	67	binds	–
